# Numbering of substitutions follows the chain as printed. In names and notes the source's numbering stands.
# T1: cynomolgus monkey TLR4 expressed on stably transfected CHO-K1 cells (cynomolgus monkey, UniProt Q9TSP2 24-826 (Papio anubis entry))
# T1 construct: Transfected alone; also called CHO cells expressing the cynomolgus monkey TLR4
# T1 chain: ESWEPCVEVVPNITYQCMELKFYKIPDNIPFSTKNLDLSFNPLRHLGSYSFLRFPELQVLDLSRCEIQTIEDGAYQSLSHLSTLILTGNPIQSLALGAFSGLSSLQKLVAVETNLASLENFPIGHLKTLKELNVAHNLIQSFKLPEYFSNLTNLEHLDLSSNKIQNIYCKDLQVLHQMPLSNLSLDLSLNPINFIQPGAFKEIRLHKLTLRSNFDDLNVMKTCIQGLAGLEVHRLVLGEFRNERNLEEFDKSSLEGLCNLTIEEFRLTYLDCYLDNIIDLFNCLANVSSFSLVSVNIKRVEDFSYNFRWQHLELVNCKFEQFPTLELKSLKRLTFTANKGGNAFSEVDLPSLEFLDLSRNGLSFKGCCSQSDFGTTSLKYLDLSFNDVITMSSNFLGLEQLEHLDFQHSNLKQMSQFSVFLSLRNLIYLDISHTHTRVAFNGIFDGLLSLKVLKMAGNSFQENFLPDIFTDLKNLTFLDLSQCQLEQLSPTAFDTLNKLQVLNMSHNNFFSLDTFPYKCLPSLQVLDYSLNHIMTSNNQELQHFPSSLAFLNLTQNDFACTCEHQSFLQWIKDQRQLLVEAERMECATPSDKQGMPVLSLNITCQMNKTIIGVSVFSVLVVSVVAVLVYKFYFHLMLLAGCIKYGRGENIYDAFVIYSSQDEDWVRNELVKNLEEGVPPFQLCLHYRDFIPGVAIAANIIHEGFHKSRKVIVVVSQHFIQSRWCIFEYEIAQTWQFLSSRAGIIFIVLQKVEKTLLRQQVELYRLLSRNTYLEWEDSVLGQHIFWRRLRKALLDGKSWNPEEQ
# T2: cynomolgus monkey TLR4 in cynomolgus monkey whole blood (cynomolgus monkey, UniProt Q9TSP2 24-826 (Papio anubis entry))
# T2 chain: T1 chain
# B1: 1E11.C2E1 antibody (IgG1) (antibody, V domains shown)
# VH: QVQLQESGPGLVKPSDTLSLTCAVSGYPIRFGYSWHWIRQPPGKGLEWMGYIHYSGYTDFNPSLKTRITISRDTSKNQFSLKLSSVTAVDTAVYYCARKDSGNYFPYWGQGTLVTVSS
# VL: EIVLTQSPDFQSVTPKEKVTITCRASQSISDHLHWYQQKPDQSPKLLIKYASHAISGVPSRFSGSGSGTDFTLTINSLEAEDAATYYCQQGNDFPVTFGGGTKVEIK
# B2: 1E11.C3 antibody (IgG1) (antibody, V domains shown)
# VH: B1 VH with F31H
# VL: B1 VL with N92H, D93S, V96L
# B3: 1E11.C6 antibody (IgG1) (antibody, V domains shown)
# VH: B1 VH with R30G, F31G
# VL: B1 VL with N92H, D93S, V96L
# B4: 1E11.C1 antibody (IgG1 reformatted) (antibody, V domains shown)
# VH: B1 VH with Y27F, F31Y
# VL: EIVLTQSPDFQSVTPKEKVTITCRASQSISDHLHWYQQKPDQSPKLLIKYASHAISGVPSRFSGSGSGTDFTLTINSLEAEDAATYYCQQGHSFPLTFGGGTKVEIKR
# notes: VH 67 / VL 4 are the variable domains
# B5: 1E11.E4 antibody (IgG1) (antibody, V domains shown)
# VH: B1 VH with P28S, R30T, F31G
# VL: B1 VL with N92Y, F94Y, V96L
# B6: 1E11.C2E5 antibody (IgG1) (antibody, V domains shown)
# VH: B1 VH
# VL: B1 VL with N92Y, D93E, V96L
# B7: 1E11.E5 antibody (IgG1) (antibody, V domains shown)
# VH: B1 VH with P28S, R30T, F31G
# VL: B1 VL with N92Y, D93E, V96L
# B8: 1E11.C2E4 antibody (IgG1) (antibody, V domains shown)
# VH: B1 VH
# VL: B1 VL with N92Y, F94Y, V96L
# B9: 1E11.C5 antibody (IgG1) (antibody, V domains shown)
# VH: B1 VH with R30W, F31G
# VL: B1 VL with N92H, D93S, V96L
# B10: 1E11.E3 antibody (IgG1) (antibody, V domains shown)
# VH: B1 VH with P28S, R30T, F31G
# VL: B1 VL with N92Y, V96L
# B11: 1E11.E2 antibody (IgG1) (antibody, V domains shown)
# VH: B1 VH with P28S, R30T, F31G
# VL: B1 VL with N92Y, F94E, V96F
# B12: 1E11.C2 antibody (IgG1) (antibody, V domains shown)
# VH: B1 VH
# VL: B1 VL with N92H, D93S, V96L
# B13: 1E11.E1 antibody (IgG1) (antibody, V domains shown)
# VH: B1 VH with P28S, R30T, F31G
# VL: B1 VL
# B14: 1E11 antibody (IgG1 reformatted) (antibody, V domains shown)
# VH: B1 VH with P28S, R30T, F31G
# VL: B4 VL
# notes: also called 1E11 Mab
# B15: 1A1 antibody (IgG1) (antibody, V domains shown)
# VH: B1 VH with P28S, R30T, F31G, N103R, Y104L, F105L
# VL: B1 VL with N92H, D93S, V96L
# notes: also called 1A1 Mab
# B16: 1C12 antibody (IgG1) (antibody, V domains shown)
# VH: B1 VH with P28S, R30T, F31G, N103Q, Y104L
# VL: B1 VL with N92H, D93S, V96L
# notes: also called 1C12 Mab
# B17: 1B12 antibody (IgG1) (antibody, V domains shown)
# VH: B1 VH with P28S, R30T, F31G, N103H, Y104L, F105M
# VL: B1 VL with N92H, D93S, V96L
# notes: also called 1B12 Mab
# B18: 1D10 antibody (IgG1) (antibody, V domains shown)
# VH: B1 VH with P28S, R30T, F31G, N103H, Y104N, F105L
# VL: B1 VL with N92H, D93S, V96L
# notes: also called 1D10 Mab
# B19: 1C7 antibody (IgG1) (antibody, V domains shown)
# VH: B1 VH with P28S, R30T, F31G, N103H, Y104N, F105Y
# VL: B1 VL with N92H, D93S, V96L
# notes: also called 1C7 Mab
# B20: 1E11 N103D antibody (IgG1) (antibody, V domains shown)
# VH: B1 VH with P28S, R30T, F31G, N103D
# VL: B1 VL with N92H, D93S, V96L
# notes: 1E11 with the N103D mutation in the heavy chain; also called 1E11 N103D Mab
# B21: 1G12 antibody (IgG1) (antibody, V domains shown)
# VH: B1 VH with P28S, R30T, F31G, N103R, F105W
# VL: B1 VL with N92H, D93S, V96L
# notes: also called 1G12 Mab
# B22: 1A6 antibody (IgG1) (antibody, V domains shown)
# VH: B1 VH with P28S, R30T, F31G, N103K, Y104W, F105L
# VL: B1 VL with N92H, D93S, V96L
# notes: also called 1A6 Mab
# B23: 1C10 antibody (IgG1) (antibody, V domains shown)
# VH: B1 VH with P28S, R30T, F31G, N103K, Y104N
# VL: B1 VL with N92H, D93S, V96L
# notes: also called 1C10 Mab
# Target: T3, soluble histidine-tagged form of human TLR4/MD2 complex (human, UniProt Q9Y6Y9 19-160)
# Test: competitive ELISA; coated 15C1 as competitor, soluble His-tagged human TLR4/MD2, Penta-His-HRP
# Experimental: (§1) The VH and VL cDNA sequences in their appropriate expression vectors were transfected into mammalian cells using the Fugene 6 Transfection Reagent (Roche, Basel, Switzerland). Briefly, Peak cells were cultured in 6-well plates at a concentration of 6×10⁵ cells per well in 2 mL culture media containing fetal bovine serum. The expression vectors, encoding the candidate VH and VL sequences, were co-transfected into the cells using the Fugene 6 Transfection Reagent according to manufacturer's instructions. One day following transfection, the culture media was aspirated, and 3 mL of fresh serum-free media was added to cells and cultured for three days at 37° C. Following three days culture period, the supernatant was harvested for IgG purified on protein G-Sepharose 4B fast flow columns (Sigma, St. Louis, Mo.) according to manufacturer's instructions. Briefly, supernatants from transfected cells were incubated overnight at 4° C. with ImmunoPure (G) IgG binding buffer (Pierce, Rockford Ill.). Samples were then passed over Protein G-Sepharose 4B fast flow columns and the IgG consequently purified using elution buffer. The eluted IgG fraction was then dialyzed against PBS and the IgG content quantified by absorption at 280 nm. Purity and IgG integrity were verified by SDS-PAGE. Relative binding potency of 1E11 variants was assessed by competitive ELISA. Briefly, 15C1 antibody was coated overnight in a 96-well Maxisorp plate and then blocked with PBS-BSA. The 15C1 reference antibody and affinity matured variants of 1E11 were added to the plate at a fixed concentration and a 3.5-fold serial dilution of the samples was performed. Then, soluble histidine-tagged form of human TLR4/MD2 complex was added to the plate at a fixed concentration. After incubation one hour at 37° C., the plate was washed and a solution of Penta-His-HRP antibody was distributed, this step was followed by an additional incubation time of one hour at 37° C. Finally, the plate was washed and TMB was added for colorimetric revelation, the enzymatic reaction is stopped by H₂SO₄ solution. The results were determined according to the absorbance at 450 nm. The relative binding potency was calculated by dividing the reference EC₅₀ with affinity matured variants EC₅₀ (Table 8).
# T3 sequence (Q9Y6Y9 19-160, one chain of several): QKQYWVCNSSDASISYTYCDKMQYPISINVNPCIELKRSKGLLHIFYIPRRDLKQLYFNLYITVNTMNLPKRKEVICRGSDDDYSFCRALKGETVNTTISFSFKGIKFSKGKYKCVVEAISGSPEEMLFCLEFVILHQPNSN
row,EC50 [µg/mL],Binder
1,0.021,B1
2,0.119,B2
3,0.061,B3
4,0.052,B4
5,0.13,B5
6,0.017,B6
7,0.152,B7
8,0.015,B8
9,0.087,B9
10,0.126,B10
11,0.315,B11
12,0.036,B12
13,0.157,B13

# Target: T1, cynomolgus monkey TLR4 expressed on …
# Test: summary grade (species binding potential); assay not given
row,binding result,Binder
1,binds,B14
2,binds,B1
3,binds,B2
4,binds,B3
5,binds,B5
6,binds,B6
7,binds,B7
8,binds,B8
9,binds,B9
10,binds,B10
11,binds,B11
12,binds,B13

# Target: T3, soluble histidine-tagged form of human …
# Test: competitive ELISA; 15C1 reference EC50 divided by variant EC50
# Experimental: as §1
row,Relative binding potency increase [fold],Binder
1,29,B1
2,5,B2
3,10,B3
4,12,B4
5,5,B5
6,36,B6
7,4,B7
8,40,B8
9,7,B9
10,5,B10
11,2,B11
12,17,B12
13,4,B13

# Target: T2, cynomolgus monkey TLR4 in cynomolgus …
# Test: cell-based or functional assay
row,"IC50, inhibition of IL-6 production in cynomolgus monkey whole blood assay [µg/mL]",Binder
1,~0.5,B12

# Target: human TLR4 in human whole blood (human)
# Test: cell-based or functional assay
"IC50, inhibition of IL-6 production in human whole blood assay [µg/mL]",fold better than 15C1 at blocking human TLR4 (human whole blood assay) [fold],Binder
0.07,3,B12

# Target: T1, cynomolgus monkey TLR4 expressed on …
# Test: summary table of species specificity (flow cytometry results)
# Experimental: 10⁵ CHO cells or CHO cells expressing the cynomolgus monkey TLR4 were incubated in phosphate-buffered saline, 2% bovine serum albumin with different concentrations of purified antibodies selected by FMAT (1A1, 1A6, 1B12, 1C7, 1C10, 1C12, 1D10, 1E11, 1G12) with 15C1 as control. Cells were washed in phosphate-buffered saline, 2% bovine serum albumin and incubated in Alexa Fluor® 647 goat anti human IgG (H+L) (1:200; Invitrogen). Cells were analyzed using a FACS calibur cytometer (BD Biosciences).
# Similar experiments were conducted with CHO cells or CHO cells expressing the human TLR4/MD2 complex. […] 1C12 Mab was also able to bind to human TLR4 but with a lower potency compared to 1E11 and 15C1 Mabs.
row,binding result,Binder
1,binds,B15
2,binds,B16
3,binds,B17
4,binds,B18
5,binds,B19
6,binds,B20
7,binds,B21
8,binds,B22
9,binds,B23
